Results published in patent US20240034804A1 (BIORAY PHARMACEUTICAL, published 2024).
Values belong to the molecule of their own block, whether it stands above or below them.

Assays:
[1] = target: SIRPα protein (Acrobiosystems, Cat. No. SIA-H5225), V1 genotype (human) (UniProt P78324); experiment: BLI (Octet Red96), SIRPα captured on H1S1K biosensor, antibody as analyte, 1:1 fit
[2] = target: membrane SIRPα on THP-1 cells (human myeloid leukemia monocytes endogenously expressing SIRPα) (human) (UniProt P78324); experiment: cell-based or functional assay
[3] = target: biotin-labeled SIRPα (V2) (Acrobiosystems, Cat. No. SI2-H82W8) (human, UniProt P78324 31-370, biotin-labeled (site not stated)); experiment: competition ELISA (FIG. 4C), blocking of biotin-labeled SIRPα (V2) binding to coated CD47-Fc
Method: (§1) 96-well plates were coated with CD47-Fc (manufacturer: Acrobiosystems, Cat. No. CD7-H5256) at 4° C. overnight. Plates were washed and blocked with 1% BSA-PBST blocking solution. […] After a 1 h incubation at 37° C., plates were washed and HRP-labeled streptavidin (manufacturer: Abcam, Cat. No.: ab7403) was added. After a 0.5 h incubation at 37° C., plates were washed and TMB solution was added. After a 0.5 h incubation at room temperature in the dark, the reaction was terminated by adding 2 N H₂SO₄. Absorbance was read at 450 nm on a microplate reader. IgG (manufacturer: GenScript) was used as the control.
(§2) The antibodies were 3-fold serially diluted from 200 nM and a total of nine concentration gradients were prepared.

[4] = target: biotin-labeled SIRPα (V8) (Acrobiosystems, Cat. No. SI8-H82W6) (human, UniProt P78324 31-370, biotin-labeled (site not stated)); experiment: competition ELISA (FIG. 4D), blocking of biotin-labeled SIRPα (V8) binding to coated CD47-Fc
Method: as §1, §2

[5] = target: T1, biotin-labeled SIRPα (Acrobiosystems, Cat. No. CDA-H82F2), V1 genotype (human, UniProt P78324 31-370, biotin-labeled (site not stated)); experiment: competition ELISA, blocking of biotin-labeled SIRPα binding to coated CD47-Fc (competitor CD47-Fc)
T1 construct: Bought protein; also called SIRPα (V1)
Method: as §1

[6] = target: T2, SIRPα protein (Acrobiosystems, Cat. No. SIA-H5225), V1 genotype (human, UniProt P78324 31-370); experiment: ELISA, coated SIRPα (SIA-H5225)
T2 construct: Bought protein; also called recombinant SIRPα protein; antigen SIRPα
Method: The plates were then blocked with 1% BSA-PBS blocking solution for 1 h at 37° C. Plates were washed with PBST. The humanized antibodies were diluted to different concentrations (3-fold serially diluted from 66.7 nM, 11 concentration gradients in total) and added to the plates. After a 1 h incubation at 37° C., plates were washed and HRP-labeled goat anti-human IgG (manufacturer: Abcam, Cat. No. Ab98595, 1:10000 dilution) was added. After a 0.5 h incubation at 37° C., plates were washed and TMB solution was added. After a 5 min incubation at room temperature in the dark, the reaction was terminated by adding 2 N H₂SO₄. Absorbance was read at 450 nm on a microplate reader.

[7] = target: T2, SIRPα protein (Acrobiosystems, Cat. No. …); experiment: BLI (Octet Red96), SIRPα captured on H1S1K biosensor, antibody as analyte, 1:1 fit
[8] = target: T1, biotin-labeled SIRPα (Acrobiosystems, …); experiment: competition ELISA (FIG. 4A), blocking of biotin-labeled SIRPα (V1) binding to coated CD47-Fc; FIG. 4A, run beside KWAR23
Method: as §1
(§3) The antibodies were 2-fold serially diluted from 83.4 nM and a total of nine concentration gradients were prepared.

[9] = target: T1, biotin-labeled SIRPα (Acrobiosystems, …); experiment: competition ELISA (FIG. 4B), blocking of biotin-labeled SIRPα (V1) binding to coated CD47-Fc; FIG. 4B, run beside 18D5 and 1H9
Method: as §1, §3

[10] = target: T1, biotin-labeled SIRPα (Acrobiosystems, …); experiment: competition ELISA (FIG. 4B), blocking of biotin-labeled SIRPα (V1) binding to coated CD47-Fc

B1: KWAR23 (antibody, V domains shown)
VH: EVQLQQSGAELVKPGASVKLSCTASGFNIKDYYIHWVQQRTEQGLEWIGRIDPEDGETKYAPKFQDKATITADTSSNTAYLHLSSLTSEDTAVYYCARWGAYWGQGTLVTVSS
VL: QIVLTQSPAIMSASPGEKVTLTCSASSSVSSSYLYWYQQKPGSSPKLWIYSTSNLASGVPARFSGSGSGTSYSLTISSMEAEDAASYFCHQWSSYPRTFGAGTKLELK
Endocytosis rate (%) [2]: 34.7% | IC50 [3]: 6.4 nM | IC50 [4]: 10.8 nM

B3: #11 antibody (humanized anti-SIRPα antibody) (antibody, V domains shown)
VH: QVTLKESGPVLVKPTETLTLTCTVSGFSLSSHGVHWIRQPPGKALEWLAVIWSDGSTTYNSTLKSRLTISKDTSKSQVVLTMTNMDPVDTATYYCARHGNYHYNMDYWGQGTLVTVSS
VL: DIQLTQSPSFLSASVGDRVTITCRTSSRVNSGYLHWYQQKPGKAPKLLIYSTSTLASGVPSRFSGSGSGTEFTLTISSLQPEDFATYYCQQYSSYPWTFGGGTKLEIK
notes: Full antibody as tested
IC50 [5]: 0.209 nM | EC50 [6]: 0.464 nM

B5: #14 antibody (humanized anti-SIRPα antibody) (antibody, human IgG1, kappa, N297A, V domains shown)
VH: QVQLQESGPGLVKPSQTLSLTCTVSGGSISSGYYWSWIRQHPGKGLEWIGYISYDGSRYNNPSLKNRVTISVDTSKNQFSLKLSSVTAADTAVYYCAREEYANYFAYWGQGTTVTVSS
VL: DIVMTQSPDSLAVSLGERATINCKSSQSLFYSSNQKNFLAWYQQKPGQPPKLLIYWASTRESGVPDRFTGSGSGTDFTLTISSVKAEDLAVYYCQQYYSYPPTFGQGTKLEIKR
Kd [7]: 0.0217 nM | IC50 [3]: 7.8 nM | IC50 [8]: 3.4 nM | IC50 [4]: 11.5 nM | IC50 [9]: 4.4 nM | IC50 [5]: 0.132 nM | EC50 [6]: 0.683 nM

B6: 18D5 (antibody, V domains shown)
VH: QVQLQQPGAELVRPGSSVKLSCKASGYTFTSYWVHWVKQRPIQGLEWIGNIDPSDSDTHYNQKFKDKASLTVDKSSSTAYMQLSSLTFEDSAVYYCVRGGTGTMAWFAYWGQGTLVTVSA
VL: DVVMTQTPLSLPVSLGDQASISCRSSQSLVHSYGNTYLYWYLQKPGQSPKLLIYRVSNRFSGVPDRFSGSGSGTDFTLKISRVEAEDLGVYFCFQGTHVPYTFGSGTKLEIK
IC50 [10]: 4.1 nM

B7: 1H9 (antibody, V domains shown)
VH: QVQLQQPGAERVKPGASVKMSCKASGYTFTSYWITWVKQRPGQGLEWIGDIYPGSGSTNHIEKFKSKATLTVDTSSNTAYMQLSRLTSEDSAVYYCATGYGSSYGYFDYWGQGTTLTVSS
VL: DIQMTQSPASLSASVGETVTITCRASENIYSYLAWYQQKQGKSPQLLVYTAKTLAEGVPSRFSGSGSGTQFSLKINSLQPEDFGNYYCQHQYGPPFTFGSGTRLVIK
IC50 [10]: 4.2 nM

The next lines start with the values.

Kd [1]: 0.0509 nM
Molecule: KWAR23 (antibody)

IC50 [5]: 6.03 nM | EC50 [6]: 1.83 nM
B2: #4 antibody (humanized anti-SIRPα antibody) (antibody, V domains shown)
VH: EVQLVQSGAEVKKPGATVKISCRGSGFNIKDYYIQWVQQAPGKGLEWMGWIDPENGDTKYAPKFQGRVTITADTSTDTAYMELSSLRSEDTAVYYCYAKGPYWGQGTTLTVSS
VL: DIVMTQSPDSLAVSLGERATINCKSSQSLFYSSNQKNFLAWYQQKPGQPPKLLIYWASTRESGVPDRFTGSGSGTDFTLTISSVKAEDLAVYYCQQYYSYPPTFGGGTKLEIK
notes: Full antibody as tested

IC50 [5]: 1.5 nM | EC50 [6]: 0.952 nM
B4: #13 antibody (humanized anti-SIRPα antibody) (antibody, V domains shown)
VH: QVQLVQSGSELKKPGASVKVSCKASGYTFTDYSIHWVRQAPGQGLEWMGWINTETGEPTYADDFKGRFVFSLDTSVSTAYLQICSLKAEDTAVYYCSRGPLYRYDGYGLEYWGQGTLVTVSS
VL: DIVMTQSPDSLAVSLGERATINCKASQSVSNDVAWYQQKPGQPPKLLIYYASNRCTGVPDRFSGSGSGTDFTLTISSLQAEDVAVYYCHQDYISPYTFGGGTKLEIK
notes: Full antibody as tested
